Data taken from the supplement of paper PMC10126150.
± gives the standard deviation of the averaged measurements.

Test system: ATP
Assay: switch fluorescence ratio, 500 uM ATP over buffer (Cy3 cluster intensity, sum of 5 cycles each) (fold (ratio)); higher = stronger signal-on switching upon ATP binding; sequences stand for … in TCGTCGGCAGCGTCAGATGTGTATAAGAGACAGTTTTTTTTTTTTTTTTTTTTTTTTT…TC
Conditions: aptamer strand: ATP DNA aptamer (quencher-CACCTGGGGGAGTATTGCGGAGGAAGG + anchor), 100 nM annealed; ATP concentration: 500 uM
Method in brief: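 Between each of five buffer/ATP cycles, the flow-cell was stripped with NaOH and re-annealed. Each cycle imaged Cy3-labelled switching-strand clusters, annealed to 100 nM quencher-labelled ATP aptamer on a modified Illumina MiSeq flow-cell, first in selection buffer and then after 15 min with 500 uM ATP at 22 °C. The fluorescence ratio is summed target-cycle over summed buffer-cycle Cy3 intensity per cluster, averaged per switch-domain sequence, with clusters outside 100-1000 RFU excluded.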
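Note: ATP exposure 15 min at 22 °C before imaging.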

Sequence: CAGTTTGTTC
- switch fluorescence ratio: 0.987 ± 0.022

Sequence: TCTACGAGAG
- switch fluorescence ratio: 1.04 ± 0.048

Sequence: CGCATAGAAA
- switch fluorescence ratio: 1.02 ± 0.045

Sequence: TTCTTTCTGT
- switch fluorescence ratio: 0.998 ± 0.0026

Sequence: TGCTAGGCTA
- switch fluorescence ratio: 1.02 ± 0.025

Sequence: AAATTAGTG
- switch fluorescence ratio: 1.05 ± 0.059

Sequence: CGACCATAGC
- switch fluorescence ratio: 1.84 ± 0.19

Sequence: TAGTTGTAAG
- switch fluorescence ratio: 0.994 ± 0.02

Sequence: GAATTTACCT
- switch fluorescence ratio: 1.2 ± 0.039

Sequence: TTCAGGCGGT
- switch fluorescence ratio: 0.992 ± 0.025

Sequence: CTATGTCGGT
- switch fluorescence ratio: 0.974 ± 0.015

Sequence: GGGTGGCCAA
- switch fluorescence ratio: 0.981 ± 0.012

Sequence: GTTGGGTACT
- switch fluorescence ratio: 0.998 ± 0.037

Sequence: AAGCCGGATG
- switch fluorescence ratio: 1.005 ± 0.0095

Sequence: TGGCGCCCGT
- switch fluorescence ratio: 1.08 ± 0.11

Sequence: GCTCGAGTGG
- switch fluorescence ratio: 1.03 ± 0.053

Sequence: TGTGTTTTGT
- switch fluorescence ratio: 0.979 ± 0.02

Sequence: GCCGACTCTG
- switch fluorescence ratio: 1.04 ± 0.048

Sequence: GGCAGGGGTG
- switch fluorescence ratio: 1.11 ± 0.015

Sequence: AGGTAGTATT
- switch fluorescence ratio: 1.04 ± 0.012

Sequence: GGGCTCTATC
- switch fluorescence ratio: 0.9913 ± 0.0025

Sequence: ATTATGCCG
- switch fluorescence ratio: 0.993 ± 0.06

Sequence: GGTCAGTTAT
- switch fluorescence ratio: 0.99 ± 0.047

Sequence: CCTATAGAGT
- switch fluorescence ratio: 0.964 ± 0.02

Sequence: GTATATATAG
- switch fluorescence ratio: 1.02 ± 0.03

Sequence: ATAGTGGTGG
- switch fluorescence ratio: 1.01 ± 0.052

Sequence: ATTGATCGAT
- switch fluorescence ratio: 1.02 ± 0.035

Sequence: TTATTGGTAT
- switch fluorescence ratio: 0.998 ± 0.018

Sequence: AAGTTGGTTA
- switch fluorescence ratio: 0.991 ± 0.026

Sequence: AAGGGTTCAC
- switch fluorescence ratio: 0.9963 ± 0.0031

Sequence: TTCCTGGCCT
- switch fluorescence ratio: 1.02 ± 0.033

Sequence: TTTTTCTCGA
- switch fluorescence ratio: 0.991 ± 0.034

Sequence: TAGAGTATCT
- switch fluorescence ratio: 0.999 ± 0.027

Sequence: CTAGGTATCA
- switch fluorescence ratio: 0.965 ± 0.054

Sequence: GGACGGGTTT
- switch fluorescence ratio: 1 ± 0.031

Sequence: TTTGTAGGCC
- switch fluorescence ratio: 0.989 ± 0.03

Sequence: GGTTAGTGGG
- switch fluorescence ratio: 0.998 ± 0.017

Sequence: ATTTCATCGT
- switch fluorescence ratio: 1.03 ± 0.012

Sequence: GATCTTTCCG
- switch fluorescence ratio: 1.08 ± 0.059

Sequence: AGGTAAATTG
- switch fluorescence ratio: 1.01 ± 0.015

Sequence: GGGATGGACC
- switch fluorescence ratio: 1 ± 0.018

Sequence: AGGGTACTTA
- switch fluorescence ratio: 1.05 ± 0.028

Sequence: TTCCGTCTAT
- switch fluorescence ratio: 1.08 ± 0.086

Sequence: TATTTTTTA
- switch fluorescence ratio: 1.019 ± 0.0089

Sequence: GTTGGGGGAA
- switch fluorescence ratio: 0.983 ± 0.023

Sequence: CCATGGTAGT
- switch fluorescence ratio: 1.028 ± 0.0029

Sequence: AGACACATCC
- switch fluorescence ratio: 1.11 ± 0.022

Sequence: AAGGGTTCGG
- switch fluorescence ratio: 1.03 ± 0.026

Sequence: TAAAAAAGTG
- switch fluorescence ratio: 1.02 ± 0.02

Sequence: TCTAGGGGAG
- switch fluorescence ratio: 1.007 ± 0.0099

Sequence: TTGTGTGACT
- switch fluorescence ratio: 0.991 ± 0.04

Sequence: TGCAAATTCC
- switch fluorescence ratio: 1.11 ± 0.021

Sequence: ATTCATAGTA
- switch fluorescence ratio: 0.9772 ± 0.0064

Sequence: CAAATAAGTT
- switch fluorescence ratio: 1.02 ± 0.029

Sequence: TTTCCTGGGT
- switch fluorescence ratio: 1.14 ± 0.18

Sequence: TTCAAGCTGA
- switch fluorescence ratio: 1.09 ± 0.069

Sequence: GTAATGGACC
- switch fluorescence ratio: 1.03 ± 0.043

Sequence: GTATGAATGG
- switch fluorescence ratio: 0.984 ± 0.049

Sequence: TGGGGCCTGG
- switch fluorescence ratio: 1.1 ± 0.23

Sequence: TACGGGTTTT
- switch fluorescence ratio: 1.01 ± 0.039

Sequence: GGTGGATCTT
- switch fluorescence ratio: 1.03 ± 0.015

Sequence: GGCTTTTGTA
- switch fluorescence ratio: 0.972 ± 0.019

Sequence: GGATTTGGG
- switch fluorescence ratio: 0.964 ± 0.014

Sequence: AGGGGCAAAG
- switch fluorescence ratio: 1.01 ± 0.013

Sequence: GTTTGTTTAC
- switch fluorescence ratio: 0.987 ± 0.014

Sequence: CGTAGCTAGA
- switch fluorescence ratio: 1.89 ± 0.047

Sequence: GTTAGCGAAG
- switch fluorescence ratio: 1 ± 0.019

Sequence: AAGTTAAGGT
- switch fluorescence ratio: 1.005 ± 0.002

Sequence: CGGTATAACT
- switch fluorescence ratio: 1 ± 0.011

Sequence: CAAATTGCTT
- switch fluorescence ratio: 1.01 ± 0.038

Sequence: CAGGCATGCG
- switch fluorescence ratio: 1.01 ± 0.037

Sequence: TCCGGGATAT
- switch fluorescence ratio: 2.23 ± 0.98

Sequence: ATCCTTTTGG
- switch fluorescence ratio: 1.03 ± 0.094

Sequence: CATTGCGATT
- switch fluorescence ratio: 1.13 ± 0.14

Sequence: GAAGGCCGGG
- switch fluorescence ratio: 1.033 ± 0.0054

Sequence: CGGCACAGCC
- switch fluorescence ratio: 1.05 ± 0.057

Sequence: GGGTTAATGA
- switch fluorescence ratio: 1 ± 0.048

Sequence: CTTTCGATAG
- switch fluorescence ratio: 1.06 ± 0.049

Sequence: ACTAGAAATG
- switch fluorescence ratio: 0.984 ± 0.017

Sequence: AACGCCGGCC
- switch fluorescence ratio: 1.01 ± 0.057

Sequence: GTAGTCCAGG
- switch fluorescence ratio: 1.27 ± 0.082

Sequence: TCACTGGGTC
- switch fluorescence ratio: 1.05 ± 0.023

Sequence: CGGAAGGCCA
- switch fluorescence ratio: 0.9836 ± 0.0044

Sequence: ATTGATTGTG
- switch fluorescence ratio: 0.983 ± 0.026

Sequence: GGTGGTTGCA
- switch fluorescence ratio: 1 ± 0.024

Sequence: CAGAGGAGTT
- switch fluorescence ratio: 1.01 ± 0.051

Sequence: TCGGGGTACG
- switch fluorescence ratio: 1.01 ± 0.015

Sequence: CGTCATATGG
- switch fluorescence ratio: 1.07 ± 0.012

Sequence: TAAACTGGTT
- switch fluorescence ratio: 0.999 ± 0.029

Sequence: GATCCTAAGC
- switch fluorescence ratio: 0.99 ± 0.014

Sequence: TAAGTTATGT
- switch fluorescence ratio: 1.01 ± 0.015

Sequence: TGTTTTATTG
- switch fluorescence ratio: 1.01 ± 0.016

Sequence: AAGTGTCATT
- switch fluorescence ratio: 0.9999 ± 0.0028

Sequence: GGGCGTAACT
- switch fluorescence ratio: 0.991 ± 0.041

Sequence: TAGTCTATTT
- switch fluorescence ratio: 0.977 ± 0.02

Sequence: TATGTCAGAG
- switch fluorescence ratio: 1.01 ± 0.039

Sequence: CACGGACCTA
- switch fluorescence ratio: 1.363 ± 0.012

Sequence: CCTTACAGCT
- switch fluorescence ratio: 1.2 ± 0.044

Sequence: CATTTTACTT
- switch fluorescence ratio: 1.02 ± 0.035

Sequence: TGCTCGGGGA
- switch fluorescence ratio: 1.021 ± 0.0023

Sequence: ATTGATTTGC
- switch fluorescence ratio: 0.997 ± 0.058

Sequence: CAAGAAAGTG
- switch fluorescence ratio: 0.9875 ± 0.0071

Sequence: TTCGAGGGTA
- switch fluorescence ratio: 0.974 ± 0.036

Sequence: TTGTTAGTTG
- switch fluorescence ratio: 1.01 ± 0.045

Sequence: GGAAGCGGGT
- switch fluorescence ratio: 0.994 ± 0.042

Sequence: GGACTAGATG
- switch fluorescence ratio: 0.978 ± 0.013

Sequence: AAGCAGATAG
- switch fluorescence ratio: 1.46 ± 0.048

Sequence: ATTGAATTGT
- switch fluorescence ratio: 0.991 ± 0.037

Sequence: TTGTTGTTGT
- switch fluorescence ratio: 0.988 ± 0.021

Sequence: ATGATCCCCG
- switch fluorescence ratio: 1.05 ± 0.025

Sequence: ATATTGGGCC
- switch fluorescence ratio: 0.997 ± 0.017

Sequence: ATTTTTTTTA
- switch fluorescence ratio: 0.974 ± 0.024

Sequence: GCTTCTACTG
- switch fluorescence ratio: 0.988 ± 0.034

Sequence: TTTACGGATG
- switch fluorescence ratio: 1.044 ± 0.0036

Sequence: TTTTATTTTA
- switch fluorescence ratio: 0.991 ± 0.039

Sequence: TTCCGCGCAG
- switch fluorescence ratio: 1.18 ± 0.016

Sequence: CCGGGGGT
- switch fluorescence ratio: 1.036 ± 0.0046

Sequence: CTATTTTTTT
- switch fluorescence ratio: 1.01 ± 0.02

Sequence: GTTTGGCTTT
- switch fluorescence ratio: 1.015 ± 0.0012

Sequence: ATTATTAGCT
- switch fluorescence ratio: 0.996 ± 0.012

Sequence: ACCGCTTCTG
- switch fluorescence ratio: 1.04 ± 0.032

Sequence: GTGTAGGCTT
- switch fluorescence ratio: 1 ± 0.015

Sequence: CAGGTTTAGG
- switch fluorescence ratio: 1.01 ± 0.021

Sequence: GGGATTGGAG
- switch fluorescence ratio: 0.995 ± 0.016

Sequence: CGGGGGCTTG
- switch fluorescence ratio: 0.975 ± 0.02

Sequence: TGTTCTTCCG
- switch fluorescence ratio: 1.23 ± 0.1

Sequence: TAAGAGGCCT
- switch fluorescence ratio: 1.02 ± 0.031

Sequence: GCCGGGTCAG
- switch fluorescence ratio: 1.02 ± 0.026

Sequence: TACACTGGCG
- switch fluorescence ratio: 1.05 ± 0.057

Sequence: GGGTACATTT
- switch fluorescence ratio: 0.987 ± 0.016

Sequence: CGGTTATAAG
- switch fluorescence ratio: 0.9679 ± 0.00054

Sequence: TTGTTTTCAC
- switch fluorescence ratio: 1.28 ± 0.4

Sequence: AGTGGAGGTG
- switch fluorescence ratio: 1.03 ± 0.043

Sequence: ACTTTCTGAC
- switch fluorescence ratio: 1.22 ± 0.24

Sequence: GGGAGGGGAA
- switch fluorescence ratio: 1.1 ± 0.15

Sequence: TGCTTGTTCG
- switch fluorescence ratio: 1.029 ± 0.0097

Sequence: TACCAACTTA
- switch fluorescence ratio: 1.1 ± 0.033

Sequence: TATGATGCTC
- switch fluorescence ratio: 0.998 ± 0.043

Sequence: GCAGCGTTCT
- switch fluorescence ratio: 1.04 ± 0.069

Sequence: ATGAGAGGAA
- switch fluorescence ratio: 0.981 ± 0.028

Sequence: TAAGTGGGAA
- switch fluorescence ratio: 1.01 ± 0.035

Sequence: GCTTCCAGTT
- switch fluorescence ratio: 0.995 ± 0.035

Sequence: TTGCTGTACT
- switch fluorescence ratio: 1.02 ± 0.021

Sequence: GCGGAAGGGG
- switch fluorescence ratio: 0.988 ± 0.015

Sequence: CGGGGGGTCG
- switch fluorescence ratio: 1.04 ± 0.069

Sequence: AAAGGTGCAA
- switch fluorescence ratio: 1.21 ± 0.2

Sequence: TCGTCTGGTT
- switch fluorescence ratio: 0.988 ± 0.03

Sequence: GCGTTTAAAG
- switch fluorescence ratio: 0.994 ± 0.023

Sequence: ACGTGATTCA
- switch fluorescence ratio: 1.03 ± 0.074

Sequence: ACCTGGGGGA
- switch fluorescence ratio: 1.07 ± 0.11

Sequence: TGGCTTTTAA
- switch fluorescence ratio: 1.013 ± 0.007

Sequence: GCTGGGAGAG
- switch fluorescence ratio: 0.989 ± 0.042

Sequence: ATTTGCGGAG
- switch fluorescence ratio: 1.002 ± 0.0057

Sequence: GGAATTAGTG
- switch fluorescence ratio: 0.995 ± 0.025

Sequence: TGCCAATGTG
- switch fluorescence ratio: 0.989 ± 0.013

Sequence: TATTTCGGGT
- switch fluorescence ratio: 1.01 ± 0.068

Sequence: TCTGCGTCTG
- switch fluorescence ratio: 1.16 ± 0.2
